Assay results published in patent publication US20200399344A1 (SHATTUCK LABS, published 2020).

Legend:
[1] = target: T1, recombinant human 2B4-Fc fusion protein (rh2B4-Fc) (human, UniProt Q9BZW8-2 22-221, limits assumed); experiment: dual ELISA; coat rh2B4-Fc, hCD86-Fc-NKG2A titrated, detection HLA-E-His, Anti 6x-His-HRP
T1 construct: not shown: Fc
T1 sequence (looked up): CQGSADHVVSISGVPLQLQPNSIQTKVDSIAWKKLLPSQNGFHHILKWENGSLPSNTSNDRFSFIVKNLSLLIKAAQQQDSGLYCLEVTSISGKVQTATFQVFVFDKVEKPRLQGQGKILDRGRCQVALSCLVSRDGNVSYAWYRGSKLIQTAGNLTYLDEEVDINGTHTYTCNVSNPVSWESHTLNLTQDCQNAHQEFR
Method: (§1) (i) recombinant human 2B4-Fc fusion protein (rh2B4-Fc) was coated on plates. Increasing amounts of the hCD48-Fc-NKG2A or hCD86-Fc-NKG2A chimeric proteins were added and detected using HLA-E-His. The hCD86-Fc-NKG2A chimeric protein was used as a negative control (Negative control #1). […] (ii) recombinant human CD2-Fc fusion protein (rhCD2-Fc) was coated on plates. Increasing amounts of the hCD58-Fc-NKG2A or hCD86-Fc-NKG2A chimeric proteins were added and detected using HLA-E-His. The hCD86-Fc-NKG2A chimeric protein was used as a negative control (Negative control #2).
(§2) To understand whether the hCD48-Fc-NKG2A chimeric protein can bind simultaneously to both 2B4 and HLA-E, the following ELISA experiment was carried out. Briefly, and recombinant 2B4 (rh2B4-Fc) protein was coated on plates. Increasing amounts of the hCD48-Fc-NKG2A chimeric protein was added to the plates for capture by the recombinant human 2B4-Fc (rh2B4-Fc) protein. Further, recombinant HLA-E (HLA-E-His) protein was added to the plate for capture by hCD48-Fc-NKG2A chimeric proteins. The binding of the HLA-E-His protein was detected using an anti-His 6× HRP antibody.

[2] = target: T2, hCD28 expressed on CHO-K1/hCD28 cells (human, UniProt P10747 19-220); experiment: flow cytometry on CHO-K1/hCD28 cells (hCD28-C1), APC-A, dose series (doses not given)
T2 construct: whole, on cells; also called CHO-K1/CD28
Method: To determine whether the hCD86-Fc-NKG2A chimeric protein can specifically bind the CHO-K1/hCD28 cells, a flow-cytometry-based assay was carried out. […] The dose dependent shifts in the flow cytometry profiles illustrate a dose-dependent binding of the hCD86-Fc-NKG2A chimeric protein to hCD28 expressed by the CHO-K1/hCD28 cells. A quantitation of binding confirmed a dose-dependent binding (FIG. 65).

[3] = target: T3, recombinant human CD2-Fc fusion protein (rhCD2-Fc) (human, UniProt P06729 25-209); experiment: dual ELISA; coat rhCD2-Fc, hCD86-Fc-NKG2A titrated, detection HLA-E-His, Anti 6x-His-HRP
T3 construct: not shown: Fc
T3 sequence (looked up): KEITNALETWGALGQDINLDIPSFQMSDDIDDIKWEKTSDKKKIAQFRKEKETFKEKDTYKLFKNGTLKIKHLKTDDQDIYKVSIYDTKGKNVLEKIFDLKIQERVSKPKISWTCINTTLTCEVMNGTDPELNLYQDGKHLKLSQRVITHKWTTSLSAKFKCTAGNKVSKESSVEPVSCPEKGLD
Method: as §1
as §2, with “hCD58-Fc-NKG2A” for “hCD48-Fc-NKG2A”, “CD2” for “2B4”, “CD2 (rhCD2-Fc)” for “2B4 (rh2B4-Fc)”, “CD2-Fc (rhCD2-Fc)” for “2B4-Fc (rh2B4-Fc)”

[4] = target: T4, recombinant human CD28-Fc (rhCD28-Fc) protein (human, UniProt P10747 19-152); experiment: dual ELISA; coat rhCD28-Fc, hCD86-Fc-NKG2a titrated, detection HLA-E-His, Anti-His-6x-HRP; the signal needs both bindings
T4 construct: not shown: Fc
Method: To understand whether the hCD86-Fc-NKG2A chimeric protein can binds simultaneously to both hCD28 and HLA-E, the following ELISA experiment was carried out. Briefly, and recombinant hCD28 (rhCD28-Fc) protein was coated on plates. Increasing amounts of the hCD86-Fc-NKG2A chimeric protein was added to the plates for capture by the rhCD28-Fc protein. Further, recombinant HLA-E (HLA-E-His) protein was added to the plate for capture by hCD86-Fc-NKG2A chimeric protein. The binding of the HLA-E-His protein was detected using an anti-His 6× HRP antibody.

[5] = target: T5, anti-human IgG antibody (plate-bound); experiment: ELISA (single sided Fc): coat Anti-Human IgG (H+L) Jax# 109-005-088, detection HRP Goat anti-human FCgamma
T5 construct: also called anti-human Fc antibody
Method: Anti-human IgG was coated on plates and increasing amounts of the indicated chimeric proteins were added to the plates. hIgG was used as a positive control, and mCD80-Fc-NKG2A was used as a negative control. The binding was detected using an anti-human Fcgamma HRP.
To understand whether the Fc linkers from the native chimeric proteins can be accessed by anti-human antibodies, ELISA-based assays were performed. For these assays, an anti-human IgG antibody was coated on plates and increasing amounts of the hCD86-Fc-NKG2A and hTGFBR2-Fc-NKG2A, mCD80-Fc-NKG2a chimeric proteins, and a human IgG antibody were added to the plates for capture by the plate-bound anti-human antibody. The human IgG antibody was used as a positive control and to generate a standard curve. The mCD80-Fc-NKG2a chimeric protein was included as a negative control as containing a non-human Fc domain. The protein bound to the anti-human IgG antibody was detected using an anti-human Fcgamma HRP.

[6] = target: T6, recombinant human CD28-His (rhCD28-His) (human, UniProt P10747 19-152); experiment: ELISA: coat rhCD28-His (Acro), detection Anti-hFc-HRP
T6 construct: also called Human CD28-His protein; recombinant CD28 protein; not shown: His tag
Method: To understand whether the CD80 and CD86 parts of the hCD80-Fc-NKG2A and hCD86-Fc-NKG2A chimeric protein can bind CD28, ELISA-based assays were performed. Briefly, recombinant CD28 protein was coated on plates and increasing amounts of the hCD80-Fc-NKG2A, hCD86-Fc-NKG2A, and mCD48-Fc-NKG2A chimeric proteins, and recombinant human CD86-Fc (rhCD86-Fc) protein was added to the plates for capture by the plate-bound recombinant CD28 protein. The mCD48-Fc-NKG2A chimeric protein, and recombinant human CDrhCD86-Fc protein was used as negative and positive controls, respectively. The chimeric proteins bound to the recombinant CD28 protein was detected using an anti-human Fc HRP.

T4 sequence (P10747 19-152 limits assumed): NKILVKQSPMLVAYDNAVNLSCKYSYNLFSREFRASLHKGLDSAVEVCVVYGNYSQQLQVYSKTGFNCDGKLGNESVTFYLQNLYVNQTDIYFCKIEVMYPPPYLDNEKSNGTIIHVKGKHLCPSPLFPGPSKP
T6 sequence (P10747 19-152 limits assumed): as above
T2 sequence (P10747 19-220): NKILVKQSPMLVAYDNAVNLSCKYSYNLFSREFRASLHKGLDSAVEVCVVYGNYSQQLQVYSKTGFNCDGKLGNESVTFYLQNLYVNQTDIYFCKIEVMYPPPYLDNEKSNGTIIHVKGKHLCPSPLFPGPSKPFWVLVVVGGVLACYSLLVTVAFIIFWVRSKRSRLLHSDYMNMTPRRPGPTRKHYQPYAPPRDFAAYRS

B1: human CD86-Fc-NKG2A chimeric protein (Fc fusion)
chain: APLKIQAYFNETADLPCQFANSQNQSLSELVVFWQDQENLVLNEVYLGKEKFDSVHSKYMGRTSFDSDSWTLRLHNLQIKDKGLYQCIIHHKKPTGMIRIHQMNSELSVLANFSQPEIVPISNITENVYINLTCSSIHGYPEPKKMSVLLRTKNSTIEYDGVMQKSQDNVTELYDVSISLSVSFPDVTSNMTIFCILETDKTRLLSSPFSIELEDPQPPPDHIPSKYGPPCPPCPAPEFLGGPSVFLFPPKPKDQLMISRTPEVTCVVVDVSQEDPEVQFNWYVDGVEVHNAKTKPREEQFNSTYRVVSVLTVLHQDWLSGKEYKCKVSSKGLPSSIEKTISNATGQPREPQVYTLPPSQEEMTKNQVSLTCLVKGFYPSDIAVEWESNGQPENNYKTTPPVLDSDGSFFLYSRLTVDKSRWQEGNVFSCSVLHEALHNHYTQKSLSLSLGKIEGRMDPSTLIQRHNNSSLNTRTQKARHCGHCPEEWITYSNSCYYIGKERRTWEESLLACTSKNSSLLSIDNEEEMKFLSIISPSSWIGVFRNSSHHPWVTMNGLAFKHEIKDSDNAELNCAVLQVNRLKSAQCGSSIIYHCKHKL
notes: also called hCD86-Fc-NKG2A
Q: What does the source list for B1?
A: binding result [1]: no binding (tested: about log 2.7 ug/ml (roughly 500 ug/ml)); binding result [2]: binds; binding result [3]: no binding (tested: about log 2.7 ug/ml (roughly 500 ug/ml)); binding result [4]: binds; EC50 (read off the curve) [5]: ~1 µg/mL; binding result [6]: binds
